# Reference: patent publication US20210147922
# Key:
# Assay in all cases: cell_activity
# [1] = tested on: AAVS1_R TALEN right monomer; conditions: paired with AAVS1_L, 2 ug per monomer, K562 cells
# [2] = tested on: GA6_R TALEN right monomer; conditions: paired with GA6_L, 2 ug mRNA per monomer, K562 cells
# [3] = tested on: GA6_EK TALEN right monomer; conditions: GA6_EK pair; GA6 54% in same table
# [4] = tested on: GA7_EK TALEN right monomer; conditions: GA7_EK pair, CD34+ cells; GA7 50%
# [5] = tested on: GA7_R TALEN right monomer; conditions: paired with GA7_L, 2 ug per monomer, CD34+ cells
# [6] = tested on: AAVS1_L TALEN left monomer; conditions: paired with AAVS1_R, 2 ug per monomer, K562 cells
# GA7_L TALEN left monomer = conditions: paired with GA7_R, 2 ug per monomer, CD34+ cells
# [7] = tested on: GA7_EK TALEN left monomer; conditions: GA7_EK pair, CD34+ cells; GA7 50%
# [8] = tested on: GA6_L19 TALEN left monomer; conditions: paired with GA6_R, K562 cells
# [9] = tested on: GA6_L (GA6_L14) TALEN left monomer; conditions: paired with GA6_R, K562 cells
# [10] = tested on: GA6_EK TALEN left monomer; conditions: GA6_EK pair; GA6 54% in same table
# [11] = tested on: GA6_L17 TALEN left monomer; conditions: paired with GA6_R, K562 cells
sequence,measurement,setting,value
AGGATTGGTGACAGAAA (double strand) [AAVS1 right half-site (printed top strand)],activity,[1],93 % editing
AGTGCATGGCTGCAATGTGTGA (double strand) [GA6 right half-site (printed top strand)],activity,[2],91 % editing
same,activity,[3],36 % editing
ATGGTAGAGAATGAGAGGGGGA (double strand) [GA7 right half-site (printed top strand)],activity,[4],20 % editing
same,activity,[5],70 % editing
TCCCCTCCACCCCACAGT (double strand) [AAVS1 left half-site],activity,[6],93 % editing
TGCTCAGCCCAGCTCAGCCT (double strand) [GA7 left half-site],activity,GA7_L TALEN left monomer,70 % editing
same,activity,[7],20 % editing
TGGAGTGTGTAACAATGCCT (double strand) [GA6_L19 left half-site],activity,[8],86 % editing
TGTGTAACAATGCCT (double strand) [GA6 left half-site],activity,[9],96 % editing
same,activity,[10],36 % editing
TGTGTAACAATGCCTGTG (double strand) [GA6_L17 left half-site],activity,[11],98 % editing
